The values below come from patent US20240317847A1 (Bayer, published 2024).

The target of assay [1] is T1, human IL-11 (human, UniProt P20809 22-199).
T1 sequence: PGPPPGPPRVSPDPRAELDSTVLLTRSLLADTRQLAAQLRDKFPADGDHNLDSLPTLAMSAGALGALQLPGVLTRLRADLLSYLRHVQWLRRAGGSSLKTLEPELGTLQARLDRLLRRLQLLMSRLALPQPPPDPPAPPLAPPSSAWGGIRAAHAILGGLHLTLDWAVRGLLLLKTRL
In words: cell-based or functional assay.

For assay [2], the target named is T2, murine IL-11 (mouse, UniProt P47873 22-199).
T2 sequence: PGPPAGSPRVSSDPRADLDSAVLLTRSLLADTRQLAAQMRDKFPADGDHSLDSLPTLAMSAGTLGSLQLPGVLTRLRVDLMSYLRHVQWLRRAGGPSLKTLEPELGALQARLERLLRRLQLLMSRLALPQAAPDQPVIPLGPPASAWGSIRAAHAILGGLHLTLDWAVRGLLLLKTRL
The assay can be described thus: cell-based or functional assay.

Assay [3] has as its target T3, rat IL-11 (rat, UniProt Q99MF5 22-199).
T3 sequence: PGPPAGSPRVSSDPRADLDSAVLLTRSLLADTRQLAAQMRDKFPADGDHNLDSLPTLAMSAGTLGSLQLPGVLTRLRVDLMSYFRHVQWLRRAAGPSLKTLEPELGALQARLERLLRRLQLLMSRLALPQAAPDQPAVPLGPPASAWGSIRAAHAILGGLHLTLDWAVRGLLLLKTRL
The assay can be described thus: cell-based or functional assay.

In assay [4] the target is T1, human IL-11. In words: cell-based or functional assay. The source holds these as a separate data set.
The target of assay [5] is T2, murine IL-11. The assay can be described thus: cell-based or functional assay. This is another data set of the same source.
For assay [6], the target named is T4, cynomolgus IL-11 (cynomolgus, UniProt P20808 22-199).
T4 sequence: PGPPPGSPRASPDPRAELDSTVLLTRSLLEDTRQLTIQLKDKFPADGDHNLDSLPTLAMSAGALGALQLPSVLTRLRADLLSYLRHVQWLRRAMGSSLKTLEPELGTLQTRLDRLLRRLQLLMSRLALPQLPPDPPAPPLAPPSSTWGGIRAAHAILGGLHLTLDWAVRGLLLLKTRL
The assay can be described thus: cell-based or functional assay.

The target of assay [7] is T1, human IL-11. The assay can be described thus: Tri-complex ELISA, hIL-11 + mIL-11Ra-Fc + hgp130-Fc, inhibition of complex formation. How it is done:
In the Tri-complex ELISA format IL-11 antibodies are tested for their ability to inhibit the formation of a complex consisting of murine or human gp130-Fc fusion protein, with murine or human IL-11, and a murine IL11RA-Fc fusion protein. The assay format was adapted according to FIG. 18 (a, b), depending on whether murine or human IL-11 IgG antibodies were tested.
(§1) IgG converted antibodies were subjected to the experimental assay procedure described in Example 19 and IC50 [M], respectively efficacy (%) were calculated accordingly.
A general note: An ELISA detects its analyte on a solid surface through an enzyme-linked reagent.

For assay [8], the target named is T2, murine IL-11. In words: Tri-complex ELISA, mIL-11 + mIL-11Ra-Fc + mgp130-Fc, inhibition of complex formation. How it is done:
In a first step, 25 μl of goat anti human IgG (Sigma, #12136), diluted 1:1000 in coating buffer (Candor, #121125) was coated on the plate at 4° C. overnight. Next day, the plate was washed one time with 50 μl PBST and then blocked with 50 μl SmartBlock (Candor, #113125) for one hour at room temperature (RT). […] After three additional washes of the coated and blocked microtiter plate with PBS-T, 25 μl of each mixture were added and the assay plate was incubated for one hour at room temperature. After three additional washes, anti-mouse-gp130 biotinylated antibody (R&D, #BAF468) or anti-human gp130 biotinylated antibody (R&D, #BAF228), both 1:1000 in 10% SmartBlock PBS-T, was added and incubated for 1 hour at RT. After three additional washes, a Streptavidin-Peroxidase conjugate (Sigma, #S5512) 1:1000 in SmartBlock PBS-T was added and incubated for one hour at room temperature. After a final three washes, AmplexRed (Fisher Scientific, A12222), 1/1000 in PBS, 0,003% H₂O₂, was added as substrate and incubated for 15 min at RT in the dark. Then, the fluorescence was measured with a plate reader at 535/595 nm. Signals from dose responses were used to calculate IC50 values using GraphPad Prism software. Efficacy was calculated as [(signal measured at lowest antibody concentration−signal measured at the highest antibody concentration)×100] divided by (signal measured at lowest antibody concentration−signal measured in the absence of antibody at an IL11 concentration of 8.2E-11 [M]).
as §1

Assay [9] deals with T5, human IL-11 (human, UniProt P20809 22-199).
T5 sequence: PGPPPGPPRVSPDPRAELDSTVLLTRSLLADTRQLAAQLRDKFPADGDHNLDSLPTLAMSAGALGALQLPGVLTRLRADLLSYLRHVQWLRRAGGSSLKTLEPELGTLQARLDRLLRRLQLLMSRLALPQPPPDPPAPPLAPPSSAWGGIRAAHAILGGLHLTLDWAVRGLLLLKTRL
In words: cell-based or functional assay. The source holds these as a separate data set.

In assay [10] the target is T6, murine IL-11 (mouse, UniProt P47873 22-199).
T6 sequence: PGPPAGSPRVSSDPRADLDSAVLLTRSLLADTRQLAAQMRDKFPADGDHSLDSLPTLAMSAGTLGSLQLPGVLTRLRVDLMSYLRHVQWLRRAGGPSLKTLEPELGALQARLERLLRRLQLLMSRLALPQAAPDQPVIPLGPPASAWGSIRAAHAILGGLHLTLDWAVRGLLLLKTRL
The assay can be described thus: cell-based or functional assay. This is another data set of the same source.

Assay [11] addresses T5, human IL-11. In words: cell-based or functional assay. The source holds these as a separate data set.
The target of assay [12] is T6, murine IL-11. In words: cell-based or functional assay. This is another data set of the same source.

Read-outs that look alike come from different tables or passages of the source.

The IC50 is the concentration that gives 50% inhibition.

B1: TPP-23552 (antibody, human IgG1, kappa)
heavy: not shown
light: DIVLTQSPASLALSPGERATLSCRASKSVSTSGYSYIHWYQQKPGQPPRLLIYLASNLDSGVPARFSGSGSGTDFTLNIHPLEEEDFATYYCQHSRDLPPTFGQGTKLEIKRTVAAPSVFIFPPSDEQLKSGTASVVCLLNNFYPREAKVQWKVDNALQSGNSQESVTEQDSKDSTYSLSSTLTLSKADYEKHKVYACEVTHQGLSSPVTKSFNRGEC
notes: hIgG1, Kappa; also called BSN 3C6 (WO2019238882)
With B1, the “Efficacy (%), Stat3 reporter gene assay” value in [1] is 87.9%; in assay [2], 76%; in [3], 81.3%; in assay [4], 76.7%; in [5], 90.9%; in [6] it was 52.4%. The “IC50, Stat3 reporter gene assay” value in assay [1] was 18 nM; in assay [2] it was 22 nM; in assay [3], 8.8 nM; in assay [4], 3.7 nM; in assay [5] it was 8.1 nM. The “Efficacy (%)” value in [7] came to 90.6%; in assay [8] it was 90.7%. The figures for the half-inhibitory concentration (IC50) in [7] and in assay [8] were 6.8 nM and 23 nM, respectively.

B2: TPP-31286 (antibody, IgG4, V domains shown)
VH: QVQLLESGGGLVQPGGSLRLSCAASGFTFSHYDMNWLRQAPGKGLEWVGVISYDGSNKFYADFVKGRFTISRDNSKNTLYLQMNSLRAEDTAVYYCARTPGSHFDYWGQGTLVTVSS
VL: QSVLTQPPSASGTPGQRVTISCSGSSSNIGNNAVNWYQQLPGTAPKLLIYYDDLLPSGVPDRFSGSKSGTSASLAISGLRSEDEADYYCSAWDDSLNGVVFGGGTKLTVL
For B2, the “IC50, RGA 1” value in assay [9] amounted to 59 nM; in [10], 18 nM. The “IC50, RGA 2” value amounted to 37 nM in [9] and 13 nM in assay [10]. The “RGA potency (mean)” value in [11] and in [12] was less than 170 nM in each case.

B3: TPP-31289 (antibody, IgG4, V domains shown)
VH: EVQLLESGGGLVQPGRSLRLSCAASGFTFSHYDMNWLRQAPGKGLEWVGVISYDGSNKFYADFVKGRFTISRDNSKNTLYLQMNSLRAEDTAVYYCARTPGSHFDYWGQGTLVTVSS
VL: QSVLTQPPSASGTPGQRVTISCSGSSSNIGNNAVNWYQQLPGTAPKLLIYYDDLLPSGVPDRFSGSKSGTSASLAISGLRSEDEADYYCSAWDDSLNGVVFGGGTKLTVL
With B3, the results for the “IC50, RGA 1” value in [9] and in assay [10] were 61 nM and 27 nM, respectively. Also, the figures for the “IC50, RGA 2” value in assay [9] and in assay [10] were 76 nM and 23 nM, respectively. The “RGA potency (mean)” value in assay [11] and in assay [12] was less than 170 nM each time.

B4: TPP-31288 (antibody, IgG4, V domains shown)
VH: EVQLLESGGGVVQPGGSLRLSCAASGFTFSHYDMNWLRQAPGKGLEWVGVISYDGSNKFYADFVKGRFTISRDNSKNTLYLQMNSLRAEDTAVYYCARTPGSHFDYWGQGTLVTVSS
VL: QSVLTQPPSASGTPGQRVTISCSGSSSNIGNNAVNWYQQLPGTAPKLLIYYDDLLPSGVPDRFSGSKSGTSASLAISGLRSEDEADYYCSAWDDSLNGVVFGGGTKLTVL
Take B4: the “IC50, RGA 1” value in assay [9] stood at 67 nM; in assay [10], 47 nM. Besides, the figures for the “IC50, RGA 2” value in assay [9] and in [10] were 141 nM and 23 nM, respectively. The “RGA potency (mean)” value in assay [11] and in assay [12] was less than 170 nM in each case.

B5: TPP-31287 (antibody, IgG4, V domains shown)
VH: EVQLVESGGGLVQPGGSLRLSCAASGFTFSHYDMNWLRQAPGKGLEWVGVISYDGSNKFYADFVKGRFTISRDNSKNTLYLQMNSLRAEDTAVYYCARTPGSHFDYWGQGTLVTVSS
VL: QSVLTQPPSASGTPGQRVTISCSGSSSNIGNNAVNWYQQLPGTAPKLLIYYDDLLPSGVPDRFSGSKSGTSASLAISGLRSEDEADYYCSAWDDSLNGVVFGGGTKLTVL
With B5, the “IC50, RGA 1” value was 127 nM in assay [9] and 41 nM in assay [10]. The entries for the “IC50, RGA 2” value in assay [9] and in [10] were 56 nM and 15 nM, respectively. Moreover, the “RGA potency (mean)” value in [11] and in [12] was less than 170 nM in each case.
